PMC4434323

How the values were obtained:
[1] = biological target: T1, C07E3.6 (C07E3.6) (Caenorhabditis elegans) (UniProt Q17792)
T1 sequence: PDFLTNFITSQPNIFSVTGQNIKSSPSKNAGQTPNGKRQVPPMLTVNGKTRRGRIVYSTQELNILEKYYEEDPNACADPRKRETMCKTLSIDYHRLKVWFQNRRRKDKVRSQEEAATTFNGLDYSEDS

[2] = biological target: T2, ceh-23 (ZK652.5) (Caenorhabditis elegans) (UniProt P34663)
T2 sequence: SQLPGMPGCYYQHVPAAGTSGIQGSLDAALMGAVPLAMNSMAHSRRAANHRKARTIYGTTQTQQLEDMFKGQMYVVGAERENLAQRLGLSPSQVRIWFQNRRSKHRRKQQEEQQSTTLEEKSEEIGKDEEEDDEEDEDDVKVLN

[3] = biological target: T3, eyg-1 (Y53C12C.1) (Caenorhabditis elegans) (UniProt O01996)
T3 sequence: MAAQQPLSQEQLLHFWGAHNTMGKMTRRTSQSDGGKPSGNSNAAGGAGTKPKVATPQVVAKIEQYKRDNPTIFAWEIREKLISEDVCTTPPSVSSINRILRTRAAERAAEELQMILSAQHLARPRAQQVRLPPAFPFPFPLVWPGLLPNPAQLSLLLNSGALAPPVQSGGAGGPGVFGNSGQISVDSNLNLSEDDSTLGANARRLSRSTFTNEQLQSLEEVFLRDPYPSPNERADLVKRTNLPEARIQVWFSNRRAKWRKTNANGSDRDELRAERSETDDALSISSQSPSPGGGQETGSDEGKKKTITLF

[4] = biological target: T4, ceh-18 (ZC64.3) (Caenorhabditis elegans) (UniProt P41934)
T4 sequence: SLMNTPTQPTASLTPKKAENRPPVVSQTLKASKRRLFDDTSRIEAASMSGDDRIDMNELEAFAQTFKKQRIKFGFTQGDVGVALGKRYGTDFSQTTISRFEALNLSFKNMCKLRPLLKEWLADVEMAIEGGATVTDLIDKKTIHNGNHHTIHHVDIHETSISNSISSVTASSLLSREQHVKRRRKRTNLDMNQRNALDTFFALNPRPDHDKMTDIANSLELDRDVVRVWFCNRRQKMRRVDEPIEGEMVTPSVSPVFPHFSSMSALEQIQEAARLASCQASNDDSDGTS

[5] = biological target: T5, T07C12.11 (T07C12.11) (Caenorhabditis elegans) (UniProt G5EGG9)
T5 sequence: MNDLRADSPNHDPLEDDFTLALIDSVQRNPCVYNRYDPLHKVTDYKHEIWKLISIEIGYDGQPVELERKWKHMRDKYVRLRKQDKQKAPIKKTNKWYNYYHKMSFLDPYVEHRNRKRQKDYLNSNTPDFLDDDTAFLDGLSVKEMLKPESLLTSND

[6] = biological target: T6, ceh-51 (Y80D3A.3) (Caenorhabditis elegans) (UniProt Q9U1R1)
T6 sequence: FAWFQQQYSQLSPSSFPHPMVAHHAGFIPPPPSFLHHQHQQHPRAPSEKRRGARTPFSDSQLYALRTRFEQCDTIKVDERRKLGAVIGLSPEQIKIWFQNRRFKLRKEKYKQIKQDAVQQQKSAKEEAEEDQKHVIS

[7] = biological target: T7, ceh-90 (R03E1.4) (Caenorhabditis elegans) (UniProt Q69YW8)
T7 sequence: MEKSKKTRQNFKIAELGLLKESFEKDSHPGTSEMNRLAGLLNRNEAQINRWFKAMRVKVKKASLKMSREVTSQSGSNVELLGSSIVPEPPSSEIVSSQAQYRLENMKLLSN

## GATAATTA (double strand) [8-mer GATAATTA]
[1]
  binding signal (PBM E-score (-0.5 to 0.5)): 0.497
[2]
  binding signal (PBM E-score (-0.5 to 0.5)): 0.492
[3]
  binding signal (PBM E-score (-0.5 to 0.5)): 0.48

## ACTAATTA (double strand) [8-mer ACTAATTA]
[1]
  binding signal (PBM E-score (-0.5 to 0.5)): 0.498
[2]
  binding signal (PBM E-score (-0.5 to 0.5)): 0.495
[3]
  binding signal (PBM E-score (-0.5 to 0.5)): 0.477

## AATATGCA (double strand) [8-mer AATATGCA]
[4]
  binding signal (PBM E-score (-0.5 to 0.5)): 0.482

## ACGTAAGA (double strand) [8-mer ACGTAAGA]
[5]
  binding signal (PBM E-score (-0.5 to 0.5)): 0.486

## ATTAATAG (double strand) [8-mer ATTAATAG]
[6]
  binding signal (PBM E-score (-0.5 to 0.5)): 0.478

## AATTATGC (double strand) [8-mer AATTATGC]
[4]
  binding signal (PBM E-score (-0.5 to 0.5)): 0.484

## GCAATTAA (double strand) [8-mer GCAATTAA]
[6]
  binding signal (PBM E-score (-0.5 to 0.5)): 0.473

## ATTAAGTG (double strand) [8-mer ATTAAGTG]
[6]
  binding signal (PBM E-score (-0.5 to 0.5)): 0.472

## ATATGCAT (double strand) [8-mer ATATGCAT]
[4]
  binding signal (PBM E-score (-0.5 to 0.5)): 0.486

## TTATGCAA (double strand) [8-mer TTATGCAA]
[4]
  binding signal (PBM E-score (-0.5 to 0.5)): 0.476

## TATGCATA (double strand) [8-mer TATGCATA]
[4]
  binding signal (PBM E-score (-0.5 to 0.5)): 0.497

## TGCATAAA (double strand) [8-mer TGCATAAA]
[4]
  binding signal (PBM E-score (-0.5 to 0.5)): 0.476

## CTTAATTA (double strand) [8-mer CTTAATTA]
[1]
  binding signal (PBM E-score (-0.5 to 0.5)): 0.497
[2]
  binding signal (PBM E-score (-0.5 to 0.5)): 0.494
[3]
  binding signal (PBM E-score (-0.5 to 0.5)): 0.482

## TTAATTAA (double strand) [8-mer TTAATTAA]
[1]
  binding signal (PBM E-score (-0.5 to 0.5)): 0.496
[2]
  binding signal (PBM E-score (-0.5 to 0.5)): 0.497
[3]
  binding signal (PBM E-score (-0.5 to 0.5)): 0.487

## TACGTAAA (double strand) [8-mer TACGTAAA]
[5]
  binding signal (PBM E-score (-0.5 to 0.5)): 0.488

## ATCAATTA (double strand) [8-mer ATCAATTA]
[3]
  binding signal (PBM E-score (-0.5 to 0.5)): 0.475

## TCAATTAA (double strand) [8-mer TCAATTAA]
[6]
  binding signal (PBM E-score (-0.5 to 0.5)): 0.467
[3]
  binding signal (PBM E-score (-0.5 to 0.5)): 0.48

## GTTACGTA (double strand) [8-mer GTTACGTA]
[5]
  binding signal (PBM E-score (-0.5 to 0.5)): 0.49

## CTTGCGCA (double strand) [8-mer CTTGCGCA]
[5]
  binding signal (PBM E-score (-0.5 to 0.5)): 0.489

## ACGTAAGC (double strand) [8-mer ACGTAAGC]
[5]
  binding signal (PBM E-score (-0.5 to 0.5)): 0.487

## ACGTAAGG (double strand) [8-mer ACGTAAGG]
[5]
  binding signal (PBM E-score (-0.5 to 0.5)): 0.488

## ATGAATAA (double strand) [8-mer ATGAATAA]
[4]
  binding signal (PBM E-score (-0.5 to 0.5)): 0.477

## ATATAATA (double strand) [8-mer ATATAATA]
[6]
  binding signal (PBM E-score (-0.5 to 0.5)): 0.472

## ATAATTAA (double strand) [8-mer ATAATTAA]
[2]
  binding signal (PBM E-score (-0.5 to 0.5)): 0.493

## CCAATTAA (double strand) [8-mer CCAATTAA]
[3]
  binding signal (PBM E-score (-0.5 to 0.5)): 0.479

## GGGTTTAA (double strand) [8-mer GGGTTTAA]
[7]
  binding signal (PBM E-score (-0.5 to 0.5)): 0.487

## ATTAATAA (double strand) [8-mer ATTAATAA]
[6]
  binding signal (PBM E-score (-0.5 to 0.5)): 0.474

## CCTAATTA (double strand) [8-mer CCTAATTA]
[1]
  binding signal (PBM E-score (-0.5 to 0.5)): 0.496
[2]
  binding signal (PBM E-score (-0.5 to 0.5)): 0.495

## AATATTCA (double strand) [8-mer AATATTCA]
[4]
  binding signal (PBM E-score (-0.5 to 0.5)): 0.477

## ATTAATGA (double strand) [8-mer ATTAATGA]
[6]
  binding signal (PBM E-score (-0.5 to 0.5)): 0.469

## ATTAATTG (double strand) [8-mer ATTAATTG]
[6]
  binding signal (PBM E-score (-0.5 to 0.5)): 0.472
[3]
  binding signal (PBM E-score (-0.5 to 0.5)): 0.478
